Values quoted from earlier work as cited in PMC1448213.

Biological target: high affinity NGF receptor (UniProt P35739)
UniProt P35739, sequence (P35739 33-418): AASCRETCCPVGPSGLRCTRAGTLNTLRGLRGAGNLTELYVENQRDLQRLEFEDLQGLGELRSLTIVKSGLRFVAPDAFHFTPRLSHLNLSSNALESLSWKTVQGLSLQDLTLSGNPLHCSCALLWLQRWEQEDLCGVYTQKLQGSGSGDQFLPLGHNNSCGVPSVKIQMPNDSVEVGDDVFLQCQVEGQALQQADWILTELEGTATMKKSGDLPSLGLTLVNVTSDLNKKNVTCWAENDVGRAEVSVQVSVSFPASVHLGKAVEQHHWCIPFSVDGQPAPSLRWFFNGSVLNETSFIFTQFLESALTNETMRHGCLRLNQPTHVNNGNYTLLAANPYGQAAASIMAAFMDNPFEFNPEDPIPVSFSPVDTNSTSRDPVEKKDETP

NGF, sequence (P01139 122-241): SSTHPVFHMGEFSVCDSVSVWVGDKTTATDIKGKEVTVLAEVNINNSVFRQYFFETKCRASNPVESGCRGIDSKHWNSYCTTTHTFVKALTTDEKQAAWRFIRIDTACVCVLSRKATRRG

NGF (from UniProt P01139)
Kd: 600 pM
